Test results: patent US20100129294

Tests used:
[1] = biological target: transthyretin (TTR) fibrils, P02766
[2] = biological target: Aβ40 fibrils formed from a synthetic Aβ40 peptide
[3] = biological target: T1, insulin fibrils formed from purified bovine insulin, P01317
T1 chain: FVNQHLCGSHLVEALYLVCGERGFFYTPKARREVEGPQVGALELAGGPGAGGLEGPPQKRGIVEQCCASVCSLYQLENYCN

[4] = biological target: β2-microglobulin (β2-M) fibrils, P61769
β2-microglobulin (β2-M) fibrils, P61769, sequence (P61769 21-119): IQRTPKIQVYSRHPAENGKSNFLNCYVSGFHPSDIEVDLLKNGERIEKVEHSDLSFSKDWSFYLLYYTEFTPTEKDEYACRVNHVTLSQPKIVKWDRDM

B1: nattokinase (protein)
chain: AQSVPYGISQIKAPALHSQGYTGSNVKVAVIDSGIDSSHPDLNVRGGASFVPSETNPYQDGSSHGTHVAGTIAALNNSIGVLGVAPSASLYAVKVLDSTGSGQYSWIINGIEWAISNNMDVINMSLGGPTGSTALKTVVDKAVSSGIVVAAAAGNEGSSGSTSTVGYPAKYPSTIAVGAVNSSNQRASFSSVGSELDVMAPGVSIQSTLPGGTYGAYNGTSMATPHVAGAAALILSKHPTWTNAQVRDRLESTATYLGNSFYYGKGLINVQAAAQ
[1]
  degradation of TTR fibrils at pH 7.4 and 37 C, by ThT fluorescence emission at 487 nm: TTR fibrils were almost completely degraded by nattokinase in one hour
[2]
  loss of negative ellipticity at 218 nm in CD spectra after 1 hr of digestion (40 C, pH 7): nattokinase degraded all three fibrils
[3]
  degradation of insulin fibrils at pH 5, 40 C, by CD spectroscopy: At pH 5, nattokinase did not show any activity
  degradation of insulin fibrils at pH 5-10, 40 C, by CD spectroscopy: the nattokinase activity increased gradually with increasing pH and reached a maximal activity at pH 10 in the range tested
  loss of negative ellipticity at 218 nm in CD spectra after 1 hr of digestion (40 C, pH 7): nattokinase degraded all three fibrils
[4]
  degradation of β2-M fibrils at pH 7.4 and 37 C, by ThT fluorescence emission at 487 nm: As for β2-M fibrils, it was degraded near completion in two hours
